# Source: the Human Domainome abundance scans (Beltran et al. 2025)
# ± gives the uncertainty stated by the source.
# B1: Nucleolar transcription factor 1, residues 408 to 469; numbered along this chain, P17480 (parent)
# chain: KRPVSAMFIFSEEKRRQLQEERPELSESELTRLLARMWNDLSEKKKAKYKAREAALKAQSER
# Variants of: B1
# Test: abundance fitness (aPCA) (normalised: wild type 0, dead -1); higher = more abundant; growth selection in yeast, the domain comes from the species named
# Settings: Homo sapiens
row,Variant,abundance fitness
1,E20Q,-0.016 ± 0.061
2,E20L,-0.1 ± 0.045
3,E20I,-0.114 ± 0.097
4,E20C,-0.025 ± 0.066
5,E20R,-0.012 ± 0.042
6,E20H,-0.09 ± 0.088
7,E20Y,-0.099 ± 0.13
8,E20P,-0.295 ± 0.065
9,E20F,-0.018 ± 0.098
10,E20S,-0.016 ± 0.055
11,E20V,-0.055 ± 0.043
12,E20D,0.031 ± 0.11
13,E20T,-0.067 ± 0.082
14,E20G,-0.064 ± 0.037
15,E20W,-0.152 ± 0.051
16,E20A,-0.092 ± 0.045
17,E20K,0.019 ± 0.074
18,E20M,-0.099 ± 0.1
19,S26E,-0.109 ± 0.062
20,S26W,-0.944 ± 0.094
21,S26A,-0.115 ± 0.056
22,S26I,-0.29 ± 0.17
23,S26F,-0.592 ± 0.11
24,S26L,-0.231 ± 0.07

row,Variant,abundance fitness
1,S26M,-0.052 ± 0.088
2,S26P,-0.16 ± 0.09
3,S26K,-0.476 ± 0.18
4,S26C,-0.263 ± 0.18
5,S26Q,-0.104 ± 0.085
6,S26Y,-0.536 ± 0.2
7,S26H,-0.182 ± 0.1
8,S26D,-0.157 ± 0.098
9,S26R,-0.157 ± 0.059
10,S26N,-0.1 ± 0.1
11,S26T,-0.144 ± 0.089
12,E27Q,-0.121 ± 0.12
13,E27Y,-0.108 ± 0.1
14,E27V,-0.201 ± 0.055
15,E27P,-0.067 ± 0.066
16,E27M,-0.358 ± 0.085
17,E27T,-0.133 ± 0.072
18,E27N,-0.33 ± 0.19
19,E27C,-0.165 ± 0.1
20,E27F,-0.212 ± 0.091
21,E27H,-0.4 ± 0.12
22,E27A,-0.143 ± 0.06
23,E27K,-0.148 ± 0.089
24,E27S,-0.178 ± 0.06

row,Variant,abundance fitness
1,E27G,-0.09 ± 0.067
2,E27W,-0.328 ± 0.11
3,E27D,0.037 ± 0.1
4,L25V,-0.155 ± 0.054
5,L25Y,-0.173 ± 0.16
6,L25C,-0.134 ± 0.072
7,L25G,-0.946 ± 0.067
8,L25E,-0.501 ± 0.076
9,L25R,-0.325 ± 0.054
10,L25T,-0.423 ± 0.082
11,L25N,-0.646 ± 0.13
12,L25K,-0.385 ± 0.082
13,L25Q,-0.477 ± 0.08
14,L25A,-0.106 ± 0.099
15,L25M,-0.011 ± 0.055
16,L25D,-0.633 ± 0.1
17,S28T,-0.076 ± 0.056
18,S28F,-0.071 ± 0.047
19,S28G,-0.047 ± 0.06
20,S28A,-0.053 ± 0.058
21,S28V,-0.089 ± 0.057
22,S28N,-0.053 ± 0.05
23,S28Y,-0.085 ± 0.057
24,S28H,-0.06 ± 0.046

row,Variant,abundance fitness
1,S28D,0.055 ± 0.074
2,S28Q,-0.08 ± 0.071
3,S28P,-0.047 ± 0.047
4,S28E,-0.011 ± 0.14
5,S28M,-0.131 ± 0.067
6,S28C,-0.043 ± 0.082
7,S28R,-0.113 ± 0.065
8,S28K,-0.037 ± 0.09
9,S28I,-0.046 ± 0.049
10,E24C,-0.225 ± 0.14
11,E24V,-0.401 ± 0.057
12,E24I,-0.544 ± 0.085
13,E24N,-0.199 ± 0.16
14,E24M,-0.148 ± 0.083
15,E24S,-0.147 ± 0.05
16,E24P,-0.451 ± 0.093
17,E24G,-0.069 ± 0.05
18,E24W,-0.083 ± 0.064
19,E24H,-0.074 ± 0.11
20,E24T,-0.123 ± 0.057
21,E24A,-0.114 ± 0.059
22,E24Q,-0.151 ± 0.1
23,E24L,-0.209 ± 0.049
24,E24R,-0.225 ± 0.06

row,Variant,abundance fitness
1,E24D,0.03 ± 0.099
2,E24F,-0.144 ± 0.085
3,L30C,-0.078 ± 0.084
4,R22Y,-0.068 ± 0.07
5,R22F,-0.057 ± 0.068
6,R22N,-0.002 ± 0.089
7,R22P,-1.06 ± 0.16
8,R22I,-0.286 ± 0.083
9,R22D,-0.139 ± 0.11
10,R22T,-0.229 ± 0.075
11,R22E,-0.194 ± 0.11
12,R22Q,-0.058 ± 0.082
13,R22S,-0.119 ± 0.05
14,R22V,-0.29 ± 0.053
15,R22H,0.06 ± 0.11
16,R22K,-0.089 ± 0.083
17,R22W,-0.132 ± 0.062
18,R22C,-0.081 ± 0.063
19,P23Y,-0.402 ± 0.13
20,P23K,-0.174 ± 0.062
21,P23M,-0.291 ± 0.071
22,P23T,-0.218 ± 0.068
23,P23E,-0.357 ± 0.068
24,P23Q,-0.275 ± 0.078

row,Variant,abundance fitness
1,P23A,-0.256 ± 0.07
2,P23W,-0.588 ± 0.068
3,P23G,-0.254 ± 0.058
4,P23S,-0.21 ± 0.06
5,P23H,-0.267 ± 0.1
6,P23I,-0.187 ± 0.09
7,P23F,-0.402 ± 0.09
8,P23N,-0.319 ± 0.12
9,P23D,-0.431 ± 0.29
10,P23V,-0.244 ± 0.067
11,P23R,-0.252 ± 0.057
12,E29R,-0.496 ± 0.047
13,E29Q,-0.111 ± 0.066
14,E29I,-0.327 ± 0.14
15,E29M,-0.172 ± 0.064
16,E29H,-0.223 ± 0.12
17,E29T,-0.157 ± 0.089
18,E29L,-0.304 ± 0.047
19,E29N,-0.174 ± 0.11
20,E29Y,-0.433 ± 0.096
21,E29K,-0.207 ± 0.079
22,E29C,-0.223 ± 0.14
23,E29S,-0.17 ± 0.067
24,E29W,-0.699 ± 0.069

row,Variant,abundance fitness
1,E29P,-1.14 ± 0.083
2,E29F,-0.603 ± 0.083
3,E29G,-0.2 ± 0.041
4,E29V,-0.258 ± 0.045
5,E21T,0.02 ± 0.066
6,E21I,-0.111 ± 0.18
7,E21L,-0.097 ± 0.041
8,E21Y,-0.276 ± 0.1
9,E21D,-0.126 ± 0.12
10,E21K,-0.065 ± 0.075
11,E21M,-0.073 ± 0.063
12,E21F,-0.238 ± 0.085
13,E21W,-0.189 ± 0.064
14,E21H,-0.163 ± 0.12
15,E21R,-0.086 ± 0.044
16,E21C,-0.076 ± 0.1
17,E21P,-1.1 ± 0.15
18,E21A,-0.099 ± 0.072
19,E21Q,-0.006 ± 0.076
20,E21V,-0.1 ± 0.056
21,Q19Y,-0.095 ± 0.082
22,Q19W,-0.159 ± 0.043
23,Q19V,-0.025 ± 0.047
